Drawing on patent US20220288193A1, this text covers OD for one substance.

The target in experiment [1] is antigen X (known antigen used as control in the ELISA of Table 1). Kind of experiment: indirect ELISA, positive control: antigen X coated, anti-X-IgY applied, row A.
For experiment [2] the target is unchanged. Kind of experiment: indirect ELISA, positive control: antigen X coated, anti-X-IgY applied, row B. (In an ELISA, binding on a coated surface is turned into a signal by an enzyme label.)

As for “anti-X-IgY (control IgY against antigen X) (antibody)”, the OD in experiment [1] amounted to 1.33 OD; in experiment [2] it was 1.43 OD.
